Laboratory results as given in patent US20260258452, “RNA-GUIDED NUCLEASES AND ACTIVE FRAGMENTS AND VARIANTS THEREOF AND METHODS OF USE” (Life Edit Therapeutics, Inc., published 2026).

T1: APG02998 (Enterococcus sp.)
T1 chain: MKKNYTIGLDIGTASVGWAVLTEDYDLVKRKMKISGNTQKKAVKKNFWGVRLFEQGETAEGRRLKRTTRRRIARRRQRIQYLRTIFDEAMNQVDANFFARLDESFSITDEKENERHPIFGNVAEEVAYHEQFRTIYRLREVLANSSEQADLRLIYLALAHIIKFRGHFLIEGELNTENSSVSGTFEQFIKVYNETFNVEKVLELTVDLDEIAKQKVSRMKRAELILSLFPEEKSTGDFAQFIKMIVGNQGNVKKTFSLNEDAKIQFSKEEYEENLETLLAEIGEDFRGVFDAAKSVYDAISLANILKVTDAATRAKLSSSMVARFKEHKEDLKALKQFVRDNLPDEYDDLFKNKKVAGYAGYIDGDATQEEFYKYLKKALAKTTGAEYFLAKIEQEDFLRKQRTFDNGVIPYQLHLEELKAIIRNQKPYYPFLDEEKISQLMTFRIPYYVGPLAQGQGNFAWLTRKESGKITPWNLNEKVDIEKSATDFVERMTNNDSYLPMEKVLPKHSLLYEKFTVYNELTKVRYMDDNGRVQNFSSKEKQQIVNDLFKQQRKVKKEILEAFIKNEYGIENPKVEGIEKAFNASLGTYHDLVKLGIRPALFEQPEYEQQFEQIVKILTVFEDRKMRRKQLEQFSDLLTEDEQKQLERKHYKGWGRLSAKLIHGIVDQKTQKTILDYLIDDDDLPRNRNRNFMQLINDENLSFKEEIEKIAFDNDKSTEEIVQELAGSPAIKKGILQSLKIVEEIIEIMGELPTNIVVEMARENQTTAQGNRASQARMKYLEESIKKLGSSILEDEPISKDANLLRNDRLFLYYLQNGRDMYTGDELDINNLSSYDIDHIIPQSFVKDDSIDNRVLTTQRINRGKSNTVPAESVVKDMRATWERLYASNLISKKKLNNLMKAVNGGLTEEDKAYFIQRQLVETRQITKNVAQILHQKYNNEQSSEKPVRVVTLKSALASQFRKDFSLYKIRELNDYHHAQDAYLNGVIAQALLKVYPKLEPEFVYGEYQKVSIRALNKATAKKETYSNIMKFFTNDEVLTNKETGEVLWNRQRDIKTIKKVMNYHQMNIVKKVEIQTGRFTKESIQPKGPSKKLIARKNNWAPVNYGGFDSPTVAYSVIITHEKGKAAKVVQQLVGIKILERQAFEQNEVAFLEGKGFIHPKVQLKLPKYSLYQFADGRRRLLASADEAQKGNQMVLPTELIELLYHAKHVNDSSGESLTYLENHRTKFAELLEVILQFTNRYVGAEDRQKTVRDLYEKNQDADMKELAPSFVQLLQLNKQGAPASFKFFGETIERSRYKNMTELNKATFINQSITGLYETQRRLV

T2: APG01868 (Enterococcus sp.)
T2 chain: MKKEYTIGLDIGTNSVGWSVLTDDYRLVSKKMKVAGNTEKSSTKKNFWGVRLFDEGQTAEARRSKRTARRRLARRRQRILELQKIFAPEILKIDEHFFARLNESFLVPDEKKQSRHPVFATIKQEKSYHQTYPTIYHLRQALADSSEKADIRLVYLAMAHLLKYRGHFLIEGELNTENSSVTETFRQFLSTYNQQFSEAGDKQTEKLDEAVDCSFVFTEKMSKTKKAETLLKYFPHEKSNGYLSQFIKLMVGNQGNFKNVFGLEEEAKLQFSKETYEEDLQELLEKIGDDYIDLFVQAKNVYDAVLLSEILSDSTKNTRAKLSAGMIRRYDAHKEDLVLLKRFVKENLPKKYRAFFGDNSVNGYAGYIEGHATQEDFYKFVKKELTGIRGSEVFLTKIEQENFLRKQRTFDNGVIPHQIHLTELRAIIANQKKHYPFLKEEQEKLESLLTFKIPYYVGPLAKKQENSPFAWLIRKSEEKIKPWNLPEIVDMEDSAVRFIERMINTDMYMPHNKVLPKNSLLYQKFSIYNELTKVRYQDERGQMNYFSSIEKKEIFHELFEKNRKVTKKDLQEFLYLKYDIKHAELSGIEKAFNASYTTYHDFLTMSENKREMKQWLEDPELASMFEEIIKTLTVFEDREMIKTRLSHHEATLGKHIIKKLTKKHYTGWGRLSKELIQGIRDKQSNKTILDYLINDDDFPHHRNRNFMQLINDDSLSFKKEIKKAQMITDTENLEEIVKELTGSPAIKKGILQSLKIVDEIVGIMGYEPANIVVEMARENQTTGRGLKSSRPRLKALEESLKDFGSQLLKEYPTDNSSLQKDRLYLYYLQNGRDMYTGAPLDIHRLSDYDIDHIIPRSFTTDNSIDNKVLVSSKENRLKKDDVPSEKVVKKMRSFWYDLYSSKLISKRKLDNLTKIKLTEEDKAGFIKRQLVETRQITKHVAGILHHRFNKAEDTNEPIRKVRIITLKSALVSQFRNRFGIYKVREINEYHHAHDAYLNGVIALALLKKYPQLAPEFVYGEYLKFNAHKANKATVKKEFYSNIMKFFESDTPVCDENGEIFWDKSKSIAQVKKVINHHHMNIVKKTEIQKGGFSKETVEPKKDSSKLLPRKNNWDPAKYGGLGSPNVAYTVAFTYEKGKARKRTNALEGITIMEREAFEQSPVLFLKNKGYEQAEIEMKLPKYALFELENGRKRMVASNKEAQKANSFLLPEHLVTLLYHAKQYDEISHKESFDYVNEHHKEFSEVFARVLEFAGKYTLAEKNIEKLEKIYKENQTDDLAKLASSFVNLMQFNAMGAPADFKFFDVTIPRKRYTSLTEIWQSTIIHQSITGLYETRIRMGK

T3: APG07991 (Enterococcus sp.)
T3 chain: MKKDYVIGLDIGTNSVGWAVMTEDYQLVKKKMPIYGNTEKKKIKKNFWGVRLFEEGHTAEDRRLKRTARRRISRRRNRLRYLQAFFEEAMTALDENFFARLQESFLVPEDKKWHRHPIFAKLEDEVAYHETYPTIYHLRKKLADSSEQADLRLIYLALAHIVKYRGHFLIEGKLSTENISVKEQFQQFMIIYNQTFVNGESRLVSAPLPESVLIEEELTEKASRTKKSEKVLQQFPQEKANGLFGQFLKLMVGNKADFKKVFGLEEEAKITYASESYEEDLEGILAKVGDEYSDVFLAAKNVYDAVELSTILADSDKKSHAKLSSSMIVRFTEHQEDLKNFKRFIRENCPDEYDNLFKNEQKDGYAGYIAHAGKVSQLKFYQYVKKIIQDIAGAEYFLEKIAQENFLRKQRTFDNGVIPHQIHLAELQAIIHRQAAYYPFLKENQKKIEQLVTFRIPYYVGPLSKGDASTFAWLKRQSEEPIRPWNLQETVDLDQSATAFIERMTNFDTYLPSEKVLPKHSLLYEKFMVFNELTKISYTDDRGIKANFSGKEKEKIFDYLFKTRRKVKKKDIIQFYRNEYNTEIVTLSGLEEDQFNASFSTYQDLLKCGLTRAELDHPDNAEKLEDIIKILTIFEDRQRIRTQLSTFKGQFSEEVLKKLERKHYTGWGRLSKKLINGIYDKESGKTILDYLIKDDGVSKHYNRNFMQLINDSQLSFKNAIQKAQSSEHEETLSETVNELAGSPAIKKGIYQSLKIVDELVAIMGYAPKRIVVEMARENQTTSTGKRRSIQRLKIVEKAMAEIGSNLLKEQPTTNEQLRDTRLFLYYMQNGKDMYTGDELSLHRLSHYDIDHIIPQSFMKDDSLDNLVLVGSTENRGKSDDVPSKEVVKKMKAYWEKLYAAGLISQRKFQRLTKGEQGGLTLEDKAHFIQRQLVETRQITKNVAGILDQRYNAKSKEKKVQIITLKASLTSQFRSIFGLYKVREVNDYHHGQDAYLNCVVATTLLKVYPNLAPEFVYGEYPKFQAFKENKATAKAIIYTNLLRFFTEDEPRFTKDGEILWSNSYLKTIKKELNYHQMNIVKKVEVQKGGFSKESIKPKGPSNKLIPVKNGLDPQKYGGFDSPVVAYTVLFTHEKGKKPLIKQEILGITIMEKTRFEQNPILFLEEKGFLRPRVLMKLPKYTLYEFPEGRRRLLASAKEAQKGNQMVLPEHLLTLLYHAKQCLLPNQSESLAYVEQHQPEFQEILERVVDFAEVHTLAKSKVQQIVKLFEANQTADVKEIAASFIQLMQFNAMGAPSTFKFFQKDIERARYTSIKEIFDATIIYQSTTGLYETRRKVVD


Columns and labels:
Experiment in all cases: cell_activity; PAM SEQ ID 116
Settings in all cases: tags: N-terminal SV40 NLS and 3xFLAG, C-terminal nucleoplasmin NLS
APG02998 = target: T1, APG02998
Method: (§1) Additionally, products from PCR #2 containing Illumina overhang sequences underwent library preparation following the Illumina 16S Metagenomic Sequencing Library protocol. Deep sequencing was performed on an Illumina Mi-Seq platform by a service provider (MOGene). Typically, 200,000 of 250 bp paired-end reads (2×100,000 reads) are generated per amplicon. […] Output alignments were hand-curated to confirm insertion and deletion sites as well as identify microhomology sites at the recombination sites. All experiments were performed in human cells. The “target sequence” is the targeted sequence within the gene target. For each target sequence, the guide RNA comprised the complementary RNA target sequence and the appropriate sgRNA depending on the RGN used.

APG01868 = target: T2, APG01868
Method: as §1

APG07991 = target: T3, APG07991
Method: as §1

| Binder | activity (APG02998) [% editing] | activity (APG01868) [% editing] | further results |
| --- | --- | --- | --- |
| SGN001346 ; TRA target SGN001346 (ssRNA ; dsDNA) RNA: UCUGUGGGACAAGAGGAUCAGUUUUAGAGCUAUGCAAAGGCAUAGCAAGUUAAAAUAAGGCUUAGUCCGUAAACAAACUUUGGCACUGUAUUCGGUGCUUUUUUU DNA 1: TCTGTGGGACAAGAGGATCA DNA 2: TGATCCTCTTGTCCCACAGA | 5.87 |  |  |
| SGN001317 ; RelA target SGN001317 (ssRNA ; dsDNA) RNA: ACAGUGCGCAUCUCCCUGGUCACCAGUUUUAGAGCUAUGCAAAGGCAUAGCAAGUUAAAAUAAGGCUUUGUCCGUCAUCAGCUUUUUUAAAGCAGCGCUGUUCUCGGCGCUUUU DNA 1: ACAGTGCGCATCTCCCTGGTCACCA DNA 2: TGGTGACCAGGGAGATGCGCACTGT |  | 19.4 |  |
| SGN001357 ; HAO1 target SGN001357 (ssRNA ; dsDNA) RNA: CAUUGAUACAAAUUAGCCGGGUUUUAGAGUCAUGUUGAAAGCAACAUAGCAAGUUAAAAUAAGGUUUUAACCGUAAUCAACUGUAAAGUGGCGCUGUUUCGGCGCUUUU DNA 1: CATTGATACAAATTAGCCGG DNA 2: CCGGCTAATTTGTATCAATG |  |  | activity (APG07991): 13.3 % editing |
| SGN001320 ; RelA target SGN001320 (ssRNA ; dsDNA) RNA: ACAGUGCGCAUCUCCCUGGUCACCAGUUUUAGAGCUAUGCAAAGGCAUAGCAAGUUAAAAUAAGGCUUAGUCCGUAAACAAACUUUGGCACUGUAUUCGGUGCUUUUUUU DNA 1: ACAGTGCGCATCTCCCTGGTCACCA DNA 2: TGGTGACCAGGGAGATGCGCACTGT | 3.48 |  |  |
| SGN001343 ; TRA target SGN001343 (ssRNA ; dsDNA) RNA: UCUGUGGGACAAGAGGAUCAGUUUUAGAGCUAUGCAAAGGCAUAGCAAGUUAAAAUAAGGCUUUGUCCGUCAUCAGCUUUUUUAAAGCAGCGCUGUUCUCGGCGCUUUU DNA 1: TCTGTGGGACAAGAGGATCA DNA 2: TGATCCTCTTGTCCCACAGA |  | 41.4 |  |
